We go through one substance from doi:10.1101/2025.05.14.654016.

This assay deals with LSSmGFP-PRL-3.C104D (human) (UniProt O75365). As to the kind of experiment: FRET or BRET; in vitro FRET, competition: LSSmGFP-PRL3.C104D (250 nM) preincubated with competitor or test compound 30 min at room temperature, then HA-CBS-mScarlet3 (500 nM); 100 mM NaCl, 20 mM HEPES pH 7.5, 5% glycerol; normalised to DMSO control. (Bioluminescence resonance energy transfer reports proximity on the nanometre scale.)
Sequence of LSSmGFP-PRL-3.C104D (human) (O75365 whole entry C104D): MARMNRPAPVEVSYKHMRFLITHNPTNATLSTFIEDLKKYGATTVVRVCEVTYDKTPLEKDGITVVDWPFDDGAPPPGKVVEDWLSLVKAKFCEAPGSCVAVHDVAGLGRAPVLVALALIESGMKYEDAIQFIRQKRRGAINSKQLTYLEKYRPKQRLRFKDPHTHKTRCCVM

For “PSM-001 (cyclic peptide, PRL substrate mimic) (from UniProt Q8NE01 416-432)”, the percent reduction of the FRET signal at 50 μM was 40%.
